B1: V5SIAH1^C44S (enzyme, UniProt Q8IUQ4 1-282, looked up)
chain: MSRQTATALPTGTSKCPPSQRVPALTGTTASNNDLASLFECPVSFDYVLPPILQCQSGHLVCSNCRPKLTCCPTCRGPLGSIRNLAMEKVANSVLFPCKYASSGCEITLPHTEKADHEELCEFRPYSCPCPGASCKWQGSLDAVMPHLMHQHKSITTLQGEDIVFLATDINLPGAVDWVMMQSCFGFHFMLVLEKQEKYDGHQQFFAIVQLIGTRKQAENFAYRLELNGHRRRLTWEATPRSIHEGIATAIMNSDCLVFDTSIAQLFAENGNLGINVTISMC
notes: Expressed from pLEX_307 in HEK293T Cas9 cells; also called V5SIAH1^44C>S; V5SIAH1^44>S; not shown: V5 tag
B2: biotinylated Strep II Avi-tagged SIAH1^SBD (enzyme, human, UniProt Q8IUQ4 90-282, looked up)
chain: VANSVLFPCKYASSGCEITLPHTEKADHEELCEFRPYSCPCPGASCKWQGSLDAVMPHLMHQHKSITTLQGEDIVFLATDINLPGAVDWVMMQSCFGFHFMLVLEKQEKYDGHQQFFAIVQLIGTRKQAENFAYRLELNGHRRRLTWEATPRSIHEGIATAIMNSDCLVFDTSIAQLFAENGNLGINVTISMC
modifications: biotinylated (Avi tag)
notes: range 90-282; Captured through terbium-coupled streptavidin in TR-FRET; also called BiotinSIAH1^SBD; not shown: N-terminal Strep II-Avi tag
B3: SIAH1^SBD (tag-cleaved) (enzyme, human, UniProt Q8IUQ4 90-282, looked up)
chain: B2 chain
notes: range 90-282; also called recombinant SIAH1^SBD

Assay [1] deals with B3. The assay is described as follows: isothermal titration calorimetry, peptide injected into SIAH1^SBD. How it is done:
(§1) All calorimetric experiments were carried out using an Affinity ITC from TA Instruments (New Castle, Del.) equipped with auto sampler in a buffer containing 20 mM HEPES, pH 7.5, 150 mM NaCl, and 0.5 mM TCEP at 25° C. For the BCL6-SIAH1 interaction, 25 μM BCL6⁵⁻³⁶⁰ protein solution in the calorimetric cell was titrated by injecting 2 μL of 250 μM SIAH1^SBD protein solution in 200 sec intervals with stirring speed at 125 rpm. […] Resulting isotherm was fitted with a single site model to yield thermodynamic parameters of DH, DS, stoichiometry, and Kd using NanoAnalyze software (TA instruments).
Background: ITC needs no label: the signal is the heat of the interaction.

Assay [2] concerns the target T1, eGFPBCL6^1-250 (human, UniProt P41182 1-250).
T1 construct: Expressed in HEK293T Cas9 cells; also called eGFPBCL6^250; non-degradable eGFPBCL6^1-250 construct; not shown: eGFP
The assay is described as follows: co-immunoprecipitation (GFP-trap) from HEK293T cells, BI-3802 or DMSO. How it is done:
(§2) The cells were harvested and lysed in RIPA lysis buffer (ThermoFisher Scientific, #89900) infused with protease inhibitor (ThermoFisher Scientific, Halt™ Protease Inhibitor Cocktail #78438) for 30 min at 4° C. […] Lysates were cleared by centrifugation (17,000 g, 20 min, 4° C.). 20 μL of pre-cleaned GFP-trap magnetic agarose beads (Chromotek, gmta-20) was added to the lysates. The beads-lysate mix was incubated at 4° C. for 30 min. Proteins were eluted in 2×sample buffer at 98° C. Eluates and whole-cell lysates were run on a polyacrylamide gel, transferred to a nitrocellulose membrane and immunoblotted for eGFP and V5.

Assay [3] deals with T2, eGFPBCL6^FL 249-251 VSP>GSA (human, UniProt P41182 1-706).
T2 construct: Expressed in HEK293T Cas9 cells; also called BCL6 V×P motif mutant; not shown: eGFP
The assay is described as above. How it is done: as §2

Assay [4] addresses T3, eGFPBCL6^1-275 (human, UniProt P41182 1-275).
T3 construct: Expressed in HEK293T Cas9 cells; also called eGFPBCL6^275; minimal degradable construct; not shown: eGFP
Put plainly: immunofluorescence colocalization in HEK293T cells, 1 µM BI-3802.

For assay [5], the target named is T4, BodipyFL-labeled BCL6^5-360 (human, UniProt P41182 5-360, BodipyFL label (site not stated)).
T4 construct: also called BodipyBCL6^5-360; BodipyFL-BCL6^5-360
The assay is described as follows: TR-FRET, apparent KD; BodipyFL-BCL6^5-360 titrated to biotinylated SIAH1^SBD in the presence of 2 µM BI-3802. How it is done:
Titrations of BodipyFL-BCL6⁵⁻³⁶⁰ were carried out by mixing 400 nM biotinylated Strep II Avi-tagged SIAH1^SBD, 2 μM compounds or equivalent volume of DMSO, and 4 nM terbium-coupled streptavidin in the same assay buffer. After dispensing the assay mixture, increasing concentration of BodipyFL-BCL6⁵⁻³⁶⁰ was added to the SIAH1 mixture in a […] (7.5 μL each, total 15 μL assay volume). The 520/490 nm ratios were measured in as described above and plotted to calculate the KD^APP values using dose-response analysis standard four parameter log-logistic curves using the dr4pl R package.
(TR-FRET usually uses a lanthanide donor and a delayed reading to cut background.)

Assay [6] addresses T5, BCL6^5-360 (ITC) (human, UniProt P41182 5-360).
T5 construct: also called BCL6^5-360 protein
The assay is described as follows: isothermal titration calorimetry, SIAH1^SBD injected into BCL6^5-360. How it is done: as §1

With EYSRPTLEVSPNVCHSNIYS (also called V×P-containing polypeptide) [BCL6^241-260 peptide], in assay [1], the binding result is listed as “binds”. For the molecule B1, the binding result in assay [2] is given as “no binding”; in assay [3], “no binding”; in assay [4], “binds”.

On to B2, for which the Kd in assay [5] was 0.2 µM. With B3, the binding result in assay [6] is “binds”.
